Assay: soluble on expression in E. coli; label from the status in PepcDB or PDB records
In the case of “MGSDKIHHHHHHMIPLSRPDINEQDIERVVEVLKSGRLSLGEYTKRFGEMVAEYTGARFGWAVSSGTAALHLILESLDIDEGDLILVPSFTFIASVNVILMKRAIPVFVDVDERTLNVSPETLEEAVKRCLKGFKQGNIEIKGKPRLFMAVDVFGHPLDWDGILDVCQRYGIAVVEDSCEALGSEYKGRKVGTFGVAGAFAFYPNKQITTGEGGVVVTNDEKIHTAVKSMSNQGRGEGDEWLYHVRFGYNYRIDEMSAALGCSQMERIDEIVEKRAEAAERYSKMLKEFSWVKVPVVEDYVTKMSWFVYVVRLEGPDRNRVMRYMEEKGVQVRNYFYPVHFQPFYEKLFGSMKGLLPVTERESEKTLAIPFFTSITESEQKTVVEILREAVERVG”, the “soluble on expression in E. coli” value is reported as “not soluble”.
In the case of “MSFFPGNDPVAGDAFACDAIENLIIPRTSDIGGFAVRRALPTRQRRLVGPFIFFDRMGPAILKAGEALDVKPHPHIGLSTVTYLFDGEIKHRDSLGTELVIRPGDINLMTAGRGIVHSERTPENLRGHPLSMSGLQTWLALPDHMEEIAPAFAHTAKEDMPLIDIKGASGRVVIGEFEGLTSPVSAFTDTLYVDLSLEPGVKFPFSADHEERAIYILSGSLDVAGDIFAADQLLVFRPGDDITLQAGSNGCHIMIFGGAALNQRRYIWWNFVSSSKERIEQAKQEWRTGRFDIVPGDEEEFVPLPEG”, the “soluble on expression in E. coli” value is reported as “not soluble”.
For “MRDVLFLPFADGMELAVAADGSAAVGDKPGDVVSAPADVVAYFAARVALMELVSVGAEAKAVVLQNFIADDRWEALCRGVRRTCRELGIDLPITGSTESNFPTVQSALGVTAIGTVANERKRIGITPEEAKFAVIGRPLVGSAVLSHPEWVAPLPLFAALLRTPYIYELIPIGSKGIYYEWTQLLAANGRQGRACACPLPLFSSGGPATSVLVSYDPDGEREIKKQAGSLFFPLHVEW”, the “soluble on expression in E. coli” value was “not soluble”.
In the case of “MSEQITFATSDFASNPEPRCPCILLLDVSGSMSGRPINELNTGLVTFRDELLADSLALKRVELGIVTFGPVHVEQPFTSAANFFPPILFAQGDTPMGAAITKALDMVEERKREYRANGISYYRPWIFLITDGAPIDEWQAAANKVFRGEEDKRFAFFSIGVQGADMKTLAQISVRQPLPLQGLQFRELFSWLSSSLRSVSRSTPGTEVVLEAPKGWTSV”, the “soluble on expression in E. coli” value is reported as “not soluble”.
With “MGSDKIHHHHHHMLSHEDNETLVRVGPGTPTGQFMRLYWLPFLPSSDLTVDGQPQRVRLLGEDLIAFRDSEGRVGLVDHVCPHRGAPLVFGRNENCGLRCVYHGWQFGVDGQVIDTPAEPAESRLKDKVRIRSYPCRERNGIVWAYMGEADANALPPLPNLEWNMVPLENVHFSFRVQECNWLQAVEGEIDSAHAPILHGRIDSQGAINEWTAKRDLRPVFECQRREFGISIASRRVLDDSHHYWRVNQFLFPFYTLVPPQSKYPELSGHAWVPVDDENTLCLMFSYTPAAPLYEKTRKLFEDGHAGRETGHASAHAFAPRPVTQPYAKYWTRFNLESAFQFDYDAQTKTWFSGLPGLWVQDAACQSGVAPIYDRRKENLGISDTGVAMTRRLLLENVRKLASERVSPVRVDDPDLWMVRAVSLTLPAGAPWQSDGAEHMRARLGADFGYTP” the “soluble on expression in E. coli” value was “not soluble”.
For “MTIYEQHFIFSDRIVPIRVRENKYARRLILRIDARGREICVTTPPAINLYSIQGFIAKHQSWIEARLARVQIAHANSYLKEGTKIPLLGIPHTIQRKEGRGITEIVAGDVRQEPKIVVYGQLEYLPRRIADVLKKQAALIITPLVKCYARKVERKVKSICYKDTKSRWGSCSIHGNLSFSWRLVMAPQEVIEYVVAHEVAHLIEMNHGPKFWALCEKLCPKSEAYRTWLKENGHMLQAVNFHSYRLEI”, the “soluble on expression in E. coli” value was “not soluble”.
For “MIETITQSQETAILESFLELVKSPYGNFASIGKLSHVLNDPDTLQKVVAVLSLTPQGKQAFEDRPMLGKIDLEQLHQLPNYTLGYMYADHMIRNQLTPPPVNENVNHPFMFLAAHLGETHDIWHVVTGCDTDKPGEVKLEAFYTAQLIPDRLFLALLAKNLLKTAMYEVELCEQILDGLTQGWMMGKRAKPLFGIEWNKLWETPLEELQTSLNIVPILEHHHHHH”, the “soluble on expression in E. coli” value was “soluble”.
In the case of “MSKIVEVSKSPYAKLKTIPVGSVRVNGFMGKYFETLVNVTLPTQYDLLENTGRLDNFRIAAGKMEGSYKTLFPFDDTDVYKWAETVSFALANRKLPELEKILDSVIEEVKAAQDEDGYLGTYLSGDRKKERWTNLAWNHELYNAGHLIQAAVAHRRVTGKNTLFEVAKRFADHIYNTFGPEKKEGAPGHPEVEMALVELYRETGDRKYLDLARYFIYARGKGLASVPRNPGPEYFIDHKPFVELEEITGHAVRALYLCSGATDLYLETGDEKIWQALNRLWENFVTKKMYITGGAGSRHDWESFGEEYELPNRRSYAESCASIANFMWNFRMLLATGDGKFADVMEQVLYNGLLSGISLDGKHYFYFNPLEDYGRTRRQKWFDCACCPPNLARFIVSFPGYMYTTSDDGVQVHLYEKSTARLDFKGSVVEIEQETDYPWSGEVAFTIKTDIEEPFSIYLRLPSWADDFVLRVDGKAVIAKPQNGYVKLSQSWKGKHTVELSLPMKAVFIEAHPFVRDDLGKAAVKRGPVVYCIEQADNPDFHVWTLVLNSESLKEEKGKILDREAVFLKGTGRALDISEWEGKLYRKLSEVREKTVEFTLIPYHMWANREPGAMAVWLKR”, the “soluble on expression in E. coli” value is reported as “soluble”.
In the case of “MGSDKIHHHHHHMHFFIRIKEKYIECIRGNINDMQTADYSMVSEIIGNPQRLGMLVFLMDGRFRTVNEVTKATNLKPNTVSLYLSHFEKISWLDDYFQGRWHYYRLANSEVASLIEKILVLSPKKKITYFNLNEEEKLLHTGRSCYNHLAGQLGVQLLCSMKTLNWIRQDGSAFQLTDKGQSNLNNALEIKFSFQEQKSWDFILPCMDWSERQLHLKGIVGKKILGAMLDKEWLYRPNRTRALALTYKGKEKFGDFLQIRA”, the “soluble on expression in E. coli” value is reported as “not soluble”.
For “MSTQVQDRIHDRRELTAVLLRALEQRHEVLDAIVDSEDHAEALTTVAGLLDTSEAYAEAVLNLTFRRLTKVERLRIQTELKDLDATLEWTSTDRPASTGRNFRLRPFTDTEEDAELFRRRCGEQVDDAGAQWSEDRVEKERTEGLSRVDDESAAWFVCEDTAENTAVGMVFGELSGREVDVAIWIAPDARKKGYGTAAVKHSRQELAAEFPGTVLVVR”, the “soluble on expression in E. coli” value was “not soluble”.
With “MGSDKIHHHHHHMKVHLIGHASLFVETLDCNILMDPLLWNPGISEGMQDICPKRQVLHDQIPEFDILVISHQHIDHFNIRSLANLPKHVDVLIPKDQFLETCLRKLGYRHIYPLKDFNEVRIGSTRLVATRSENRVPEYGMIFADSDGVFWNQVDSIVNAQTINEVKSRYPQINFLLAPWQPLLQIQYQYNECVIFPYASYSHLLKIIGLTAPKAIAPGANGFKQINGSSWLNQIVFPVTREQFCHDVQQAYPTIQDRIFSFDPGDVITLNNGEVSHSPQKSTFVKKLADDSDSLYFSPVNTDSKLIDDNPEGYDIEQMKSVIEEEICIHLTKFFNDKKDSLFMEYGYWKAIYQLEVIFPTHSEAWYFDFSEHSIQCRRGKNPLANVFTLIAASSFYGLLKGIKGWDYANFGGYYRCFNKVYQATLYGIIRPFDDSNQGIPDPLSLKFPYKEVYERVRFYEIEKWGQVNDEQTIDKNSQNPMVIIGNTLIKPQHKVQCI” the “soluble on expression in E. coli” value was “not soluble”.
In the case of “MRGSHHHHHHTDPALRASSFQFEQIGVIRSPYKEKFAVPRQPGLVKSANGELHLIAPYNQADAVRGLEAFSHLWILFVFHQTMEGGWRPTVRPPRLGGNARMGVFATRSTFRPNPIGMSLVELKEVVCHKDSVILKLGSLDLVDGTPVVDIKPYLPFAESLPDASASYAQSAPAAEMAVSFTAEVEKQLLTLEKRYPQLTLFIREVLAQDPRPAYRKGEETGKTYAVWLHDFNVRWRVTDAGFEVFALEPRGLCGR”, the “soluble on expression in E. coli” value is reported as “soluble”.
With “MSLDYANGNHVLIIPKYKGSLLFTKHKIRGIEFPGGKREKGEASETAAAREVFEETGATIKYCEYIAQYKVDRQIGMSFTKDVFMVEIEAITEQPDYFETDGPLLYKSLSEIPEDKKSYLLKDPAILQCLERVIELGFYSEGHHHHHH” the “soluble on expression in E. coli” value was “not soluble”.
For “MSLRIKNNEVAVYAIGGLHEIGKNMYCVQYQDEIIIMDCGIKFPEDDLLGINYVISDYSYLIKNRKKIKALVVSHGHEDHIGGIPFLLEKIPEIPVYATPFALSLIRGKLEEHGILKTTELHEEHEDTVLKFKKLSVSFFRTTHSIPDTLGIAVHTPLGAVVFTGDFKFDLTPVMDQPAPDFQKMAKLGNEGVLALLSDSTNAEVTQFTKSERFVAQSLHNIITGIHGRIIFATFASNLYRVSTAIQAAIDTGRKVAIFGRSMENGVDNGIDLGYLDIPKDLIVDAEEINKLPPDKVMILCTGSQGEPLAALSRIANGTHRQITLQPGDTVIFSSNPIPGNTLSVNHLINKLMEGGANVIHGRVNNVHTSGHGGQEELKMMVRLTKPKYMIPVHGEYRMQVIHTQLAQQAGVPAENTFVLSNGEVVCFGPNGARLAGRIPAGDVYVDTSGTADVGNVVVHDRQILSEEGLVVAVATVDYKHKRVLAGPDILSRGFVYMRESTELISQAQKHVYHVLRNEMSKSDKPKESEIKKAITENLSDFLYSKTERRPMILPIIIEKEGHHHHHH”, the “soluble on expression in E. coli” value was “soluble”.
For “MGSDKIHHHHHHMDELLEKAKKVREAWDVLRNATTREKNKAIKKIAEKLDERRKEILEANRIDVEKARERGVKESLVDRLALNDKRIDEMIKACETVIGLKDPVGEVIDSWVREDGLRIARVRVPIGPIGIIYESRPNVTVETTILALKSGNTILLRGGSDALNSNKAIVSAIREALKETEIPESSVEFIENTDRSLVLEMIRLREYLSLVIPRGGYGLISFVRDNATVPVLETGVGNCHIFVDESADLKKAVPVIINAKTQRPGTCNAAEKLLVHEKIAKEFLPVIVEELRKHGVEVRGCEKTREIVPDVVPATEDDWPTEYLDLIIAIKVVKNVDEAIEHIKKYSTGHSESILTENYSNAKKFVSEIDAAAVYVNASTRFTDGGQFGFGAEIGISTQRFHARGPVGLRELTTYKFVVLGEYHVRE”, the “soluble on expression in E. coli” value was “soluble”.
In the case of “MNFDEIDKTFGTKNRDQGYDLLKARLDKGDRSVEVLWRLAQVIHEKSACVPKAQRKASVTEGLKFAEEAVQKDPNHFKALKWNAVLTGQATEYMATKEKLECSKKFKELLDKTLAKEPKDTAVLHLRGRYKYSVASLTWLEKKLAATFYQQPPSHSYEEANEDFLAAYKVNPKWMENTFYVSKCYVAIKDKANARKYLTEVCDIEPYSDAEQEFADDAKQMLSKL”, the “soluble on expression in E. coli” value is reported as “soluble”.
In the case of “MSVDPACPQSLPCFEASDCKESSPMPVICGPEENYPSLQMSSAEMPHTETVSPLPSSMDLLIQDSPDSSTSPKGKQPTSAENSVAKKEDKVPVKKQKTRTVFSSTQLCVLNDRFQRQKYLSLQQMQELSNILNLSYKQVKTWFQNQRMKSKRWQKNNWPKNSNGVTQKASAPTYPSLYSSYHQGCLVNPTGNLPMWSNQTWNNSTWSNQTQNIQSWSNHSWNTQTWCTQSWNNQAWNSPFYNCGEESLQSCMHFQPNSPASDLEAALEAAGEGLNVIQQTTRYFSTPQTMDLFLNYSMNMQPEDV”, the “soluble on expression in E. coli” value is reported as “soluble”.
In the case of “MGAGASAEEKHSRELEKKLKEDAEKDARTVKLLLLGAGESGKSTIVKQMKIIHQDGYSLEECLEFIAIIYGNTLQSILAIVRAMTTLNIQYGDSARQDDARKLMHMADTIEEGTMPKEMSDIIQRLWKDSGIQACFDRASEYQLNDSAGYYLSDLERLVTPGYVPTEQDVLRSRVKTTGIIETQFSFKDLNFRMFDVGGQRSERKKWIHCFEGVTAIIFCVALSDYDLVLAEDEEMNRMHESMKLFDSICNNKWFTDTSIILFLNKKDLFEEKIKKSPLTICYPEYAGSNTYEEAGNYIKVQFLELNMRRDVKEIYSHMTCATDTQNVKFVFDAVTDIIIKENLKDCGLF”, the “soluble on expression in E. coli” value is reported as “soluble”.
With “MGSDKIHHHHHHMDKDERLHYLDSLERLRGSKVLVYFAYTPLDDSILVPLYEQLKAIGHTEKIDLLLHSYGGAVDTPYKVVMLIREFCNEFGVIVPFVAKSAASMLVLGADEVVMGPISELGPIDPLIKHPIYKELWVPVQAIRYCIDYLQRSIESNPNPELVTGIITPMINKLDPWLIGDYEKALKASHQYAEALLSRYMLKDNPELVPVVTRALTEGYFSHGYPIGRQEAKELGLRVTEAEDELWDVIWSLYRGYEELFSTCDSGDRV” the “soluble on expression in E. coli” value was “not soluble”.

From the DeepSol protein solubility set
